Reference: PMC7486785 (Proceedings of the National Academy of Sciences of the …, 2020)

Molecular target: T1, Duck egg lysozyme (DEL) (Anas platyrhynchos, DEL-II double mutant, strain)
T1 construct: duck egg lysozyme, DEL-II isoform, D65N + N103D double mutant; source: P. pastoris, secreted, purified (ion exchange)
T1 chain: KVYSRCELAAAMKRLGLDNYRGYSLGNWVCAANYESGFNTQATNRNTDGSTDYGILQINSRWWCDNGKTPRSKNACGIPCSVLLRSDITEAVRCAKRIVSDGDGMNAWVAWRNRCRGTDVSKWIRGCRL
Assay: BLI; BLItz; biotinylated Fab loaded on streptavidin biosensors, lysozyme proteins in solution at a range of molar concentrations; PBS (sensors rehydrated in PBS with 0.1% BSA); global fit, 1:1 Fab-lysozyme interaction; affinities printed as 1/KD
Conditions: both partners purified

- Ka: 2.5e+07 M⁻¹
B1: Hy10 Fab (Fab, V domains shown)
VH: DVQLQESGPSLVKPSQTLSLTCSVTGDSITSDYWSWIRKFPGNRLEYMGYVSYSGSTYYNPSLKSRISITRDTSKNQYYLDLNSVTTEDTATYYCANWDGDYWGQGTLVTVSA
VL: DIVLTQSPATLSVTPGNSVSLSCRASQSIGNNLHWYQQKSHESPRLLIKYASQSISGIPSRFSGSGSGTDFTLSINSVETEDFGMYFCQQSNSWPYTFGGGTKLEIK
notes: Hy10 Fab heavy chain; Hy10 Fab light chain; Biotinylated only for BLI, not for the crystals; also called HyHEL10; WT founder antibody; source: Expi293, transient, purified (Talon, gel filtration)
